# Data from PMC9482650, “Quantitative fragmentomics allow affinity mapping of interactomes” (Nature Communications, 2022).
# Target: T1, ARHGEF11, O15085
# T1 sequence (O15085 42-136, limits assumed, looked up): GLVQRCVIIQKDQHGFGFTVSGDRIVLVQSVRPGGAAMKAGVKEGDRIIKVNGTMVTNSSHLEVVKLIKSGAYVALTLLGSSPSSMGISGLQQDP
# Assay: holdup assay
# Design: key: below the threshold = too weak to quantify, mostly under pKd 3.1 to 4
# Settings: plain residues with an end cap or a label only (N-terminal biotin on a linker: ado-ado)
row,Binder,pKd
1,"QSPPNIYYKV [EFNB3, Q15768]",4.15
2,"ANGLMQTSKL [SSTR5, P35346]",3.8

# Target: T2, CARD11, Q9BXL7
# T2 sequence (Q9BXL7 662-765, limits assumed, looked up): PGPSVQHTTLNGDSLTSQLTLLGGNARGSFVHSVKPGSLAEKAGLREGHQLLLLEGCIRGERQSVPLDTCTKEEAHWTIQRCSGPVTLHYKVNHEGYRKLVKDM
# Assay: holdup assay
# Design: key: below the threshold = too weak to quantify, mostly under pKd 3.1 to 4
# Settings: plain residues with an end cap or a label only (N-terminal biotin on a linker: ado-ado)
row,Binder,pKd
1,"QSPPNIYYKV [EFNB3, Q15768]",below the threshold
2,"ANGLMQTSKL [SSTR5, P35346]",below the threshold

# Target: DLG5_1, Q8TDM6
# Assay: holdup assay
# Design: key: below the threshold = too weak to quantify, mostly under pKd 3.1 to 4
# Settings: plain residues with an end cap or a label only (N-terminal biotin on a linker: ado-ado)
# DLG5_1, Q8TDM6, sequence (Q8TDM6 617-713): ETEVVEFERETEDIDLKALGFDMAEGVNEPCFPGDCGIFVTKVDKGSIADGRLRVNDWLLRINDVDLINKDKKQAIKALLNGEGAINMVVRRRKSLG
row,Binder,pKd
1,"QSPPNIYYKV [EFNB3, Q15768]",below the threshold
2,"ANGLMQTSKL [SSTR5, P35346]",below the threshold

# Target: T3, DVL3, Q92997
# T3 sequence (Q92997 244-331, limits assumed, looked up): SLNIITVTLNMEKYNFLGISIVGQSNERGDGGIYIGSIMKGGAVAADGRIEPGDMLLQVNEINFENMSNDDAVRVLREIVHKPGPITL
# Assay: holdup assay
# Design: key: below the threshold = too weak to quantify, mostly under pKd 3.1 to 4
# Settings: plain residues with an end cap or a label only (N-terminal biotin on a linker: ado-ado)
row,Binder,pKd
1,"QSPPNIYYKV [EFNB3, Q15768]",below the threshold
2,"ANGLMQTSKL [SSTR5, P35346]",below the threshold

# Target: GIPC2, Q8TF65
# Assay: holdup assay
# Design: key: below the threshold = too weak to quantify, mostly under pKd 3.1 to 4
# Settings: plain residues with an end cap or a label only (N-terminal biotin on a linker: ado-ado)
# GIPC2, Q8TF65, sequence (Q8TF65 112-203): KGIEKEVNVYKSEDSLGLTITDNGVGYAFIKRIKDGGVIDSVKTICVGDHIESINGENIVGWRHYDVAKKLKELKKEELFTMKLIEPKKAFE
row,Binder,pKd
1,"QSPPNIYYKV [EFNB3, Q15768]",below the threshold
2,"ANGLMQTSKL [SSTR5, P35346]",below the threshold

# Target: GRASP, Q7Z6J2
# Assay: holdup assay
# Design: key: below the threshold = too weak to quantify, mostly under pKd 3.1 to 4
# Settings: plain residues with an end cap or a label only (N-terminal biotin on a linker: ado-ado)
# GRASP, Q7Z6J2, sequence (Q7Z6J2 96-193): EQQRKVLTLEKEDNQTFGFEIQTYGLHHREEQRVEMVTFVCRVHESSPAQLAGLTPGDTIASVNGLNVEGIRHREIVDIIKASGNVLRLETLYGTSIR
row,Binder,pKd
1,"QSPPNIYYKV [EFNB3, Q15768]",3.57
2,"ANGLMQTSKL [SSTR5, P35346]",4.68

# Target: T4, GRIP1_3, Q9Y3R0
# T4 sequence (Q9Y3R0 247-346, limits assumed, looked up): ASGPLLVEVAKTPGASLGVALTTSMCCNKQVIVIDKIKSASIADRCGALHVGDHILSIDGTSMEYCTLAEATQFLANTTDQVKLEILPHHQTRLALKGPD
# Assay: holdup assay
# Design: key: below the threshold = too weak to quantify, mostly under pKd 3.1 to 4
# Settings: plain residues with an end cap or a label only (N-terminal biotin on a linker: ado-ado)
row,Binder,pKd
1,"QSPPNIYYKV [EFNB3, Q15768]",below the threshold
2,"ANGLMQTSKL [SSTR5, P35346]",below the threshold

# Target: T5, GRIP1_7, Q9Y3R0
# T5 sequence (Q9Y3R0 999-1096, limits assumed, looked up): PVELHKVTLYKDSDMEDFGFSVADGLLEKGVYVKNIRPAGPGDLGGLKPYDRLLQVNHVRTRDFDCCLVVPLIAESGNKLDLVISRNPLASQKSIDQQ
# Assay: holdup assay
# Design: key: below the threshold = too weak to quantify, mostly under pKd 3.1 to 4
# Settings: plain residues with an end cap or a label only (N-terminal biotin on a linker: ado-ado)
row,Binder,pKd
1,"QSPPNIYYKV [EFNB3, Q15768]",3.67
2,"ANGLMQTSKL [SSTR5, P35346]",below the threshold

# Target: GRIP2_5, Q9C0E4
# Assay: holdup assay
# Design: key: below the threshold = too weak to quantify, mostly under pKd 3.1 to 4
# Settings: plain residues with an end cap or a label only (N-terminal biotin on a linker: ado-ado)
# GRIP2_5, Q9C0E4, sequence (Q9C0E4 544-642): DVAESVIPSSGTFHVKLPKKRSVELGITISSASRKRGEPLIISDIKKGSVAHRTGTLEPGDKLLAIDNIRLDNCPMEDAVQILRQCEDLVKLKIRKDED
row,Binder,pKd
1,"QSPPNIYYKV [EFNB3, Q15768]",below the threshold
2,"ANGLMQTSKL [SSTR5, P35346]",below the threshold

# Target: T6, HTRA3, P83110
# T6 sequence (P83110 354-453, limits assumed, looked up): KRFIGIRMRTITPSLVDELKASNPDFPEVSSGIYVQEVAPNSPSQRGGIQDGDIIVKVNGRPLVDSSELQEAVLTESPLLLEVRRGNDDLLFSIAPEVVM
# Assay: holdup assay
# Design: key: below the threshold = too weak to quantify, mostly under pKd 3.1 to 4
# Settings: plain residues with an end cap or a label only (N-terminal biotin on a linker: ado-ado)
row,Binder,pKd
1,"QSPPNIYYKV [EFNB3, Q15768]",3.53
2,"ANGLMQTSKL [SSTR5, P35346]",below the threshold

# Target: IL16_1, Q14005
# Assay: holdup assay
# Design: key: below the threshold = too weak to quantify, mostly under pKd 3.1 to 4
# Settings: plain residues with an end cap or a label only (N-terminal biotin on a linker: ado-ado)
# IL16_1, Q14005, sequence (Q14005 210-306): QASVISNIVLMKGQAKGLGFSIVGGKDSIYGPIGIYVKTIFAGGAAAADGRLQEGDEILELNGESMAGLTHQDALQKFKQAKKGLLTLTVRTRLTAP
row,Binder,pKd
1,"QSPPNIYYKV [EFNB3, Q15768]",below the threshold
2,"ANGLMQTSKL [SSTR5, P35346]",below the threshold

# Target: Inadl_10, Q8NI35
# Assay: holdup assay
# Design: key: below the threshold = too weak to quantify, mostly under pKd 3.1 to 4
# Settings: plain residues with an end cap or a label only (N-terminal biotin on a linker: ado-ado)
# Inadl_10, Q8NI35, sequence (Q8NI35 1673-1763): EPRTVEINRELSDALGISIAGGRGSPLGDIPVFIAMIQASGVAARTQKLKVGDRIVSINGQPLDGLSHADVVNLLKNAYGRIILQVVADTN
row,Binder,pKd
1,"QSPPNIYYKV [EFNB3, Q15768]",below the threshold
2,"ANGLMQTSKL [SSTR5, P35346]",below the threshold

# Target: LDB3, O75112
# Assay: holdup assay
# Design: key: below the threshold = too weak to quantify, mostly under pKd 3.1 to 4
# Settings: plain residues with an end cap or a label only (N-terminal biotin on a linker: ado-ado)
# LDB3, O75112, sequence (O75112 1-94): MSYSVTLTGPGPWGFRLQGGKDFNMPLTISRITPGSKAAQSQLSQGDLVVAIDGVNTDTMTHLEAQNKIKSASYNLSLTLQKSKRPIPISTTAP
row,Binder,pKd
1,"QSPPNIYYKV [EFNB3, Q15768]",below the threshold
2,"ANGLMQTSKL [SSTR5, P35346]",below the threshold

# Target: LNX1_1, Q8TBB1
# Assay: holdup assay
# Design: key: below the threshold = too weak to quantify, mostly under pKd 3.1 to 4
# Settings: plain residues with an end cap or a label only (N-terminal biotin on a linker: ado-ado)
# LNX1_1, Q8TBB1, sequence (Q8TBB1 261-371): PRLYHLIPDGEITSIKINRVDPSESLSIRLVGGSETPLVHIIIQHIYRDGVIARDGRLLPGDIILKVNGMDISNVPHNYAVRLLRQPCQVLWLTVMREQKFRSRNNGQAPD
row,Binder,pKd
1,"QSPPNIYYKV [EFNB3, Q15768]",3.86
2,"ANGLMQTSKL [SSTR5, P35346]",below the threshold

# Target: LNX1_3, Q8TBB1
# Assay: holdup assay
# Design: key: below the threshold = too weak to quantify, mostly under pKd 3.1 to 4
# Settings: plain residues with an end cap or a label only (N-terminal biotin on a linker: ado-ado)
# LNX1_3, Q8TBB1, sequence (Q8TBB1 500-596): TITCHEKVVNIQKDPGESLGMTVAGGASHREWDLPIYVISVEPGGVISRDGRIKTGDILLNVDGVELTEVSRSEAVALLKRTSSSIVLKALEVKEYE
row,Binder,pKd
1,"QSPPNIYYKV [EFNB3, Q15768]",4.47
2,"ANGLMQTSKL [SSTR5, P35346]",below the threshold

# Target: T7, LNX2_3, Q8N448
# T7 sequence (Q8N448 463-564, limits assumed, looked up): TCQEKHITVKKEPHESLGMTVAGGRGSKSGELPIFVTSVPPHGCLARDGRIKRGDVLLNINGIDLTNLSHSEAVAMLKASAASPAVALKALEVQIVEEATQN
# Assay: holdup assay
# Design: key: below the threshold = too weak to quantify, mostly under pKd 3.1 to 4
# Settings: plain residues with an end cap or a label only (N-terminal biotin on a linker: ado-ado)
row,Binder,pKd
1,"QSPPNIYYKV [EFNB3, Q15768]",below the threshold
2,"ANGLMQTSKL [SSTR5, P35346]",below the threshold

# Target: T8, LRRC7, Q96NW7
# T8 sequence (Q96NW7 1440-1537, limits assumed, looked up): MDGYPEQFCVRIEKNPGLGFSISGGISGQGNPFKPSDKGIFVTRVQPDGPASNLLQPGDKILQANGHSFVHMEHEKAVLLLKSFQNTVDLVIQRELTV
# Assay: holdup assay
# Design: key: below the threshold = too weak to quantify, mostly under pKd 3.1 to 4
# Settings: plain residues with an end cap or a label only (N-terminal biotin on a linker: ado-ado)
row,Binder,pKd
1,"QSPPNIYYKV [EFNB3, Q15768]",below the threshold
2,"ANGLMQTSKL [SSTR5, P35346]",below the threshold

# Target: MAGI1_2, Q96QZ7
# Assay: holdup assay
# Design: key: below the threshold = too weak to quantify, mostly under pKd 3.1 to 4
# Settings: plain residues with an end cap or a label only (N-terminal biotin on a linker: ado-ado)
# MAGI1_2, Q96QZ7, sequence (Q96QZ7 456-580): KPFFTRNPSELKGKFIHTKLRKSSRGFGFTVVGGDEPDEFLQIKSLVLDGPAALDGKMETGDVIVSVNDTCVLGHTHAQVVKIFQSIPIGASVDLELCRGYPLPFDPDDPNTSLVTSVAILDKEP
row,Binder,pKd
1,"QSPPNIYYKV [EFNB3, Q15768]",below the threshold
2,"ANGLMQTSKL [SSTR5, P35346]",below the threshold

# Target: MAGI2_3, Q86UL8
# Assay: holdup assay
# Design: key: below the threshold = too weak to quantify, mostly under pKd 3.1 to 4
# Settings: plain residues with an end cap or a label only (N-terminal biotin on a linker: ado-ado)
# MAGI2_3, Q86UL8, sequence (Q86UL8 600-682): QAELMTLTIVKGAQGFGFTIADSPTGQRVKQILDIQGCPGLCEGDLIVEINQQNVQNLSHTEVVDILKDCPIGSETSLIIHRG
row,Binder,pKd
1,"QSPPNIYYKV [EFNB3, Q15768]",below the threshold
2,"ANGLMQTSKL [SSTR5, P35346]",3.48

# Target: T9, MPDZ_12, O75970
# T9 sequence (O75970 1857-1958, limits assumed, looked up): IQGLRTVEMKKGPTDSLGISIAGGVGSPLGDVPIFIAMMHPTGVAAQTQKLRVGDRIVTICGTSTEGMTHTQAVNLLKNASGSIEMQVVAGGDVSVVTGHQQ
# Assay: holdup assay
# Design: key: below the threshold = too weak to quantify, mostly under pKd 3.1 to 4
# Settings: plain residues with an end cap or a label only (N-terminal biotin on a linker: ado-ado)
row,Binder,pKd
1,"QSPPNIYYKV [EFNB3, Q15768]",below the threshold
2,"ANGLMQTSKL [SSTR5, P35346]",below the threshold

# Target: NHERF4_1, Q86UT5-2
# Assay: holdup assay
# Design: key: below the threshold = too weak to quantify, mostly under pKd 3.1 to 4
# Settings: plain residues with an end cap or a label only (N-terminal biotin on a linker: ado-ado)
# NHERF4_1, Q86UT5-2, sequence (Q86UT5 other isoform, or with tags, fused parts or gaps): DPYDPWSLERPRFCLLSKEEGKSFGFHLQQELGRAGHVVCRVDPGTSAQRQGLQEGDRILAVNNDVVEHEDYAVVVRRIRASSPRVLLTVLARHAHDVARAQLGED
row,Binder,pKd
1,"QSPPNIYYKV [EFNB3, Q15768]",below the threshold
2,"ANGLMQTSKL [SSTR5, P35346]",4.3

# Target: NHERF4_2, Q86UT5
# Assay: holdup assay
# Design: key: below the threshold = too weak to quantify, mostly under pKd 3.1 to 4
# Settings: plain residues with an end cap or a label only (N-terminal biotin on a linker: ado-ado)
# NHERF4_2, Q86UT5, sequence (Q86UT5 220-308): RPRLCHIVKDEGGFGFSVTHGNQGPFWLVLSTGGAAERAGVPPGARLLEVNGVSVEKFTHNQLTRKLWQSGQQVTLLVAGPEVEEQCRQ
row,Binder,pKd
1,"QSPPNIYYKV [EFNB3, Q15768]",below the threshold
2,"ANGLMQTSKL [SSTR5, P35346]",below the threshold

# Target: NHERF4_4, Q86UT5
# Assay: holdup assay
# Design: key: below the threshold = too weak to quantify, mostly under pKd 3.1 to 4
# Settings: plain residues with an end cap or a label only (N-terminal biotin on a linker: ado-ado)
# NHERF4_4, Q86UT5, sequence (Q86UT5 464-550): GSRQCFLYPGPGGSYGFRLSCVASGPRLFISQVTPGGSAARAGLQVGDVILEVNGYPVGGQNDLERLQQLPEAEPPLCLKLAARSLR
row,Binder,pKd
1,"QSPPNIYYKV [EFNB3, Q15768]",below the threshold
2,"ANGLMQTSKL [SSTR5, P35346]",below the threshold

# Target: PDZRN4_1, Q6ZMN7
# Assay: holdup assay
# Design: key: below the threshold = too weak to quantify, mostly under pKd 3.1 to 4
# Settings: plain residues with an end cap or a label only (N-terminal biotin on a linker: ado-ado)
# PDZRN4_1, Q6ZMN7, sequence (Q6ZMN7 213-318): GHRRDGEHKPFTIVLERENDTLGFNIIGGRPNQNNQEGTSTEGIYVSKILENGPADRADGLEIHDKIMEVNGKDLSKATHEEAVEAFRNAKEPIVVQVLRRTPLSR
row,Binder,pKd
1,"QSPPNIYYKV [EFNB3, Q15768]",below the threshold
2,"ANGLMQTSKL [SSTR5, P35346]",below the threshold

# Target: T10, RHPN1, Q8TCX5
# T10 sequence (Q8TCX5 508-602, limits assumed, looked up): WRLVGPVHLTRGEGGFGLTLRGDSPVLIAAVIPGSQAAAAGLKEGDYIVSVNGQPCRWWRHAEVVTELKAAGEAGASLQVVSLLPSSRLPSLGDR
# Assay: holdup assay
# Design: key: below the threshold = too weak to quantify, mostly under pKd 3.1 to 4
# Settings: plain residues with an end cap or a label only (N-terminal biotin on a linker: ado-ado)
row,Binder,pKd
1,"QSPPNIYYKV [EFNB3, Q15768]",below the threshold
2,"ANGLMQTSKL [SSTR5, P35346]",4.36

# Target: SCRIB_1, Q14160
# Assay: holdup assay
# Design: key: below the threshold = too weak to quantify, mostly under pKd 3.1 to 4
# Settings: plain residues with an end cap or a label only (N-terminal biotin on a linker: ado-ado)
# SCRIB_1, Q14160, sequence (Q14160 718-814): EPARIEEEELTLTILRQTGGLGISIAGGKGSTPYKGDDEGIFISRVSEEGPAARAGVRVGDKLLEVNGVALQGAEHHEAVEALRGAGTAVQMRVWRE
row,Binder,pKd
1,"QSPPNIYYKV [EFNB3, Q15768]",below the threshold
2,"ANGLMQTSKL [SSTR5, P35346]",4.06

# Target: TJP1_2, Q07157
# Assay: holdup assay
# Design: key: below the threshold = too weak to quantify, mostly under pKd 3.1 to 4
# Settings: plain residues with an end cap or a label only (N-terminal biotin on a linker: ado-ado)
# TJP1_2, Q07157, sequence (Q07157 181-274): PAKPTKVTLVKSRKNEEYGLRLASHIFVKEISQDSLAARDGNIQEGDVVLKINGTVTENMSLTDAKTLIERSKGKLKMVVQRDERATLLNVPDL
row,Binder,pKd
1,"QSPPNIYYKV [EFNB3, Q15768]",below the threshold
2,"ANGLMQTSKL [SSTR5, P35346]",below the threshold

# Target: TJP1_3, Q07157
# Assay: holdup assay
# Design: key: below the threshold = too weak to quantify, mostly under pKd 3.1 to 4
# Settings: plain residues with an end cap or a label only (N-terminal biotin on a linker: ado-ado)
# TJP1_3, Q07157, sequence (Q07157 416-512): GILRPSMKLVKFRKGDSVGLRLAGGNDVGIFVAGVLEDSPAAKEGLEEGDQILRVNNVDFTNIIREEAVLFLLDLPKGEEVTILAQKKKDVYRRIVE
row,Binder,pKd
1,"QSPPNIYYKV [EFNB3, Q15768]",below the threshold
2,"ANGLMQTSKL [SSTR5, P35346]",below the threshold
